Experimental findings from patent publication US20060121047A1, “Use of hmgb polypetides for increasing immune responses” (priority 2002, published 2006) are described below.

Marks after values point to notes of the source that are not given here.

The test system of data set [1] is Murine macrophage-like RAW 264.7 cells. The data set is described as follows: TNF release from RAW 264.7 cells (L929 cytotoxicity bioassay). It is filed as cell-based. The conditions noted are these: for TNF release, dose dependence: B box 0-10 μg/ml, 8 hours (FIG. 2A). How it is done: (§1) Murine macrophage-like RAW 264.7 cells (American Type Culture Collection, Rockville, Md.) were cultured in RPMI 1640 medium (Life Technologies, Grand Island N.Y.) supplemented with 10% fetal bovine serum (Gemini, Catabasas, Calif.), penicillin and streptomycin (Life Technologies) and were used at 90% confluence in serum-free Opti-MEM I medium (Life Technologies, Grand Island, N.Y.). […] Polymyxin B was not used in experiments of synthetic peptide studies.
TNF release was measured by a standard murine fibroblast L929 (ATCC, American Type Culture Collection, Rockville, Md.) cytotoxicity bioassay (Bianchi et al., Journal of Experimental Medicine 183:927-936, 1996) with the minimum detectable concentration of 30 pg/ml. Recombinant mouse TNF was obtained from R&D system Inc., (Minneapolis, MN). Murine fibroblast L929 cells (ATCC) were cultured in DMEM (Life Technologies, Grand Island, N.Y.) supplemented with 10% fetal bovine serum (Gemini, Catabasas, Calif.), penicillin (50 units/ml) and streptomycin (50 μg/ml) (Life Technologies) in a humidified incubator with 5% CO2.
The effect of the mutants on TNF release from Murine macrophage-like RAW 264.7 cells (ATCC) was carried out as follows. RAW 264.7 cells were cultured in RPMI 1640 medium (Life Technologies, Grand Island N.Y.) supplemented with 10% fetal bovine serum (Gemini, Catabasas, Calif.), penicillin and streptomycin (Life Technologies). Polymyxin (Sigma, St. Louis, Mo.) was added at 100 units/ml to suppress the activity of any contaminating LPS. Cells were incubated with 1 μg/ml of full length (wild-type) HMGB1 and each HMGB1 mutant protein in Opti-MEM I medium for 8 hours, and conditioned supernatants (containing TNF which had been released from the cells) were collected and TNF released from the cells was measured by a standard murine fibroblast L929 (ATCC) cytotoxicity bioassay (Bianchi et al., supra) with the minimum detectable concentration of 30 pg/ml. Recombinant mouse TNF was obtained from R & D Systems Inc., (Minneapolis, Minn.) and used as control in these experiments. Data in FIG. 1 are all presented as mean+SEM unless otherwise indicated. (=6−10).
(§2) To further examine the effect of HMGB1 B box on cytokine production, varying amounts of HMGB1 B box were evaluated for the effects on TNF, IL-1B, and IL-6 production in murine macrophage-like RAW 264.7 cells. Conditioned media were harvested and measured for TNF, IL-1β and IL-6 levels. TNF levels were measured as described herein, and IL-1β and IL-6 levels were measured using the mouse IL-1β and IL-6 enzyme-linked immunosorbent assay (ELISA) kits (R&D System Inc., Minneapolis, 1) and N>5 for all experiments.
The kinetics of B box-induced TNF release was also examined. TNF release and TNF mRNA expression was measured in RAW 264.7 cells induced by B box polypeptide or GST tag polypeptide only used as a control (vector) (10 μg/ml) for 0 to 48 hours. Supernatants were analyzed for TNF protein levels by an L929 cytotoxicity assay (N=3-5) as described herein. For mRNA measurement, cells were plated in 100 mm plate and treated in Opti-MEM I medium containing B box polypeptide or the vector alone for 0, 4, 8, or 24 hours, as indicated in FIG. 2D. The vector only sample was assayed at the 4 hour time point. Cells were scraped off the plate and total RNA was isolated by RNAzol B method in accordance with the manufacturer's instructions (Tel-Test “B”, Inc., Friendswood, Tex.). TNF (287 bp) was measured by RNase protection assay (Ambion, Austin, Tex.). Equal loading and the integrity of RNA was verified by ethidium bromide staining of the RNA sample on agarose-formaldehyde gel. […] TNF mRNA expression was maximal at 4 hours and decreased at 8 and 24 hours. […] A similar study was carried out measuring TNF protein released from RAW 264.7 cells 0, 4, 8, 24, 32 or 48 hours after administration of B box or vector only (GST tag), using the L929 cytotoxicity assay described herein. […] Data are representative of three separate experiments. […]

For data set [2], the system named is RAW 264.7 cells. The data set is described as follows: IL-1β release from RAW 264.7 cells (ELISA). It is filed as cell-based, murine. The conditions noted are these: B box 0-10 μg/ml, 8 hours (FIG. 2B). As for the experimental part: as §1, §2
Data set [3] deals with D-galactosamine-sensitized Balb/c mice. The data set is described as follows: Toxicity (survival) in D-galactosamine-sensitized Balb/c mice. The conditions noted are these: for Alive/total: survival monitored up to 7 days. It is filed as in vivo. The text has this: Male 6-8 week old Balb/c and C3H/HeJ mice were purchased from Harlen Sprague-Dawley (Indianapolis, Ind.) and were allowed to acclimate for 7 days before use in experiments. All animals were housed in the North Shore University Hospital Animal Facility under standard temperature, and a light and dark cycle.
The D-galactosamine-sensitized model has been described previously (Galanos et al., Proc Natl. Acad. Sci. USA 76: 5939-5943, 1979; and Lehmann et al., J. Exp. Med. 165: 657663, 1997). Mice were injected intraperitoneally with 20 mg D-galactosamine-HCL (Sigma)/mouse (in 200 μl PBS) and 0.1 or 1 mg of either HMGB1 B box or vector protein (in 200 μl PBS).
To investigate whether the HMGB1 B box has cytokine activity in vivo, we administered HMGB1 B box protein to unanesthetized Balb/c mice sensitized with D-galactosamine (D-gal), a model that is widely used to study cytokine toxicity (Galanos et al., supra). Briefly, mice (20-25 gram, male, Harlan Sprague-Dawley, Indianapolis, IN) were intraperitoneally injected with D-gal (20 mg) (Sigma) and B box (0.1 mg/ml/mouse or 1 mg/ml/mouse) or GST tag (vector; 0.1 mg/ml/mouse or 1 mg/ml/mouse), as indicated in Table 1. […]

For data set [4] the test system is unchanged. Put plainly: Serum cytokine levels in D-galactosamine-sensitized Balb/c mice. It is filed as in vivo. The conditions noted are these: 1 mg/mouse i.p. plus D-gal, 7 hours. How it is done: To further assess the lethality of the HMGB1 B box protein in vivo the HMGB1 B box was again administered to D-galactosamine-sensitized Balb/c mice. Mice (3 per group) received D-gal (20 mg/mouse) plus B box or vector (1 mg/mouse) intraperitoneally for 7 hours and were then sacrificed by decapitation. Blood was collected, and organs (liver, heart, kidney and lung) were harvested and fixed in 10% formaldehyde. Tissue sections were prepared with hematoxylin and eosin staining for histological evaluation (Criterion Inc., Vancouver, Canada). […] In FIG. 4J, hepatocyte dropouts are seen surrounded by accumulated polymorphonuclear leukocytes. The arrows in FIG. 4J point to the sites of polymorphonuclear accumulation (dotted) or apoptotic hepatocytes (solid).

B1: B box: Recombinant GST-system human HMGB1 mutant containing only the B box, 74 amino acids, SEQ ID NO: 20 (protein, listed as Homo sapiens)
chain: FKDPNAPKRLPSAFFLFCSEYRPKIKGEHPGLSIGDVAKKLGEMWNNTAADDKQPYEKKAAKLKEKYEKDIAAY
modifications: GST system
Take B1: the TNF release result in data set [1] (1 μg/ml protein, 8 hours, RAW 264.7 cells (FIG. 1)) is recorded as “potent activator of monocyte TNF release”. In data set [1] (10 μg/ml), the “time of maximum TNF protein release” value was at most 8 h. Besides, in data set [1] (10 μg/ml, 0 to 48 hours), the “TNF protein expression/release versus medium only” value is “stimulated TNF protein expression”. The “TNF release, dose dependence” value is given as “increased with increased amounts of B box” in data set [1] and “dose-dependently stimulated release” in data set [1] (listed as HMGB1 B box). In addition, the “IL-1β release, dose dependence” value in data set [2] was “addition of 1 μg/ml or 10 μg/ml of B box resulted in increased release”; in data set [2] (listed as HMGB1 B box) it was “dose-dependently stimulated release”. The Alive/total in data set [3] (0.1 mg/mouse i.p. with D-gal 20 mg) is listed as 6/6; in data set [3] (1 mg/mouse i.p. with D-gal 20 mg), 2/8*. Further, the lethality entry in data set [3] (0.1 or 1 mg/mouse i.p.) is on record as “lethal to D-galactosamine-sensitized mice in a dose-dependent manner”. Moreover, the time of death in data set [3] (instances in which death occurred) is at most 12 h. Moreover, the “late deaths among survivors” value in data set [3] (survivors followed for 2 weeks) was “no later deaths from B box toxicity were observed”. The “serum levels of IL-1β” value in data set [4] is 15+3 pg/ml. Moreover, the “serum levels of IL-6” value in data set [4] is reported as 315+93 pg/ml.
